Laboratory results from US11015206B2, “Compositions and methods comprising sequences having hydroxyphenylpyruvate dioxygenase (HPPD) activity” (PIONEER HI-BRED INTERNATIONAL, INC., priority 2014, dated 2021).
Positions count from the first letter of the chain named.

B1: P056028-F-09 (protein)
chain: MGPTPTATAAGAAVAAASAAEQAAFRLVGHRNFVRFNPRSDRFQTLAFHHVELWCADAASAAGRFSFALGVPLAARSDLSTGNSAHASLLLRSGSLSLLFTAPYAHGADAATAALPSFSAAAARRFAADHGLAVRAVALRVADAEDAFRASVAAGARPAFGPVDLGRGFRLAEVELYGDVVLRYVSYPDGAAGEPFLPGFEGVASQGAADYGLSRFDHIVGNVPELAPAAAYMAGFTGFHEFAEFTTEDVGTTESGLNSMALANNSENVLLPLNEPVHGTKRRSQIQTFLDHHGGPGVQHIALASDDVLRTLREMRARSAMGGFEFLPPPLSDYYDGVRRCAGDVLTEAQINECQELGVMVDRDDEGVLLQIFTKPVGDRPTFFLELIQRIGCMEKDEKGQEYQKGGCGGFGKGNFGQLFKSIEDYEKSLEAKQAAAAATAQGS
modifications: Zea mays variant form created by artificial means.
B2: P056028-G-10 (protein)
chain: B1 chain with P158K, Q206P, L327P, L387I, G417Q
modifications: Zea mays variant form created by artificial means.
B3: P056028-G-02 (protein)
chain: B1 chain with Q206P, M233V, L387I
modifications: Zea mays variant form created by artificial means.
B4: P056028-G-04 (protein)
chain: B1 chain with Q206P, Y211L, L385I
modifications: Zea mays variant form created by artificial means.
B5: P056028-G-05 (protein)
chain: B1 chain with A191G, Y211L, S214N, R340K, L385I, L387I, G417Q, Q434R
modifications: Zea mays variant form created by artificial means.
B6: P056028-G-06 (protein)
chain: B1 chain with L182M, S214N, R340K
modifications: Zea mays variant form created by artificial means.
B7: P056028-G-07 (protein)
chain: B1 chain with R340K, E356R, L387I
modifications: Zea mays variant form created by artificial means.
B8: P056028-G-08 (protein)
chain: B1 chain with Q206P, Y211L, R340K, E356K, L387I
modifications: Zea mays variant form created by artificial means.
B9: P056028-G-09 (protein)
chain: B1 chain with P158K, Q206P, L387I, M394V
modifications: Zea mays variant form created by artificial means.
B10: SEQ ID NO 1 (protein)
chain: MGPTPTAAAAGAAVAAASAAEQAAFRLVGHRNFVRFNPRSDRFHTLAFHHVELWCADAASAAGRFSFGLGAPLAARSDLSTGNSAHASLLLRSGSLSFLFTAPYAHGADAATAALPSFSAAAARRFAADHGLAVRAVALRVADAEDAFRASVAAGARPAFGPVDLGRGFRLAEVELYGDVVLRYVSYPDGAAGEPFLPGFEGVASPGAADYGLSRFDHIVGNVPELAPAAAYFAGFTGFHEFAEFTTEDVGTAESGLNSMVLANNSENVLLPLNEPVHGTKRRSQIQTFLDHHGGPGVQHMALASDDVLRTLREMQARSAMGGFEFMAPPTSDYYDGVRRRAGDVLTEAQIKECQELGVLVDRDDQGVLLQIFTKPVGDRPTLFLEIIQRIGCMEKDEKGQEYQKGGCGGFGKGNFSQLFKSIEDYEKSLEAKQAAAAAAAQGS
modifications: Zea mays
B11: SEQ ID NO 2 (protein)
chain: B1 chain with Q206P, E366Q, L387I
modifications: Zea mays variant form created by artificial means.

Legend:
Format in all cases: biochemical, Z. mays
[1] = test system: 4-hydroxyphenylpyruvate dioxygenase (HPPD); test: ON rate ratio: HPPD reaction rate with vs without inhibitor in the 70 to 90 second interval; conditions: for ON rate ratio: Table 7, tembotrione, combinatorial variants; for ON Rat. (ON ratio parameter): Megatable 2
Procedure, shortened: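 Indicator of inhibitor on-rate: reaction velocity in the 70 to 90 second window with 4 μM inhibitor divided by that without. Reactions contained 100 μM HPP and 60 or 120 nM HPPD; slower binding gives a larger ratio.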

[2] = test system: 4-hydroxyphenylpyruvate dioxygenase (HPPD); test: OFF rate ratio: release of inhibitor from pre-formed enzyme-inhibitor complex; conditions: for OFF rate ratio: Table 7, tembotrione, combinatorial variants; for OFF Rat. (OFF ratio parameter): Megatable 2
Procedure, shortened: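 Inhibitor release from pre-formed complex (enzyme 7.2 μM, inhibitor 8 μM, 1 h RT) tracked as accelerating HPPD activity at 320 nm over 12 min, coupled via 50 nM HGD with 100 μM HPP at pH 7. OFF rate ratio: steady-state velocity relative to uninhibited initial velocity.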

[3] = test system: 4-hydroxyphenylpyruvate dioxygenase (HPPD); test: Insensitivity parameter (ON × OFF) and trait fitness (ON × OFF × kcat/KM or × kcat); set-up: key to ON × OFF / Insensitivity, mesotrione, ON × OFF / Insensitivity, tembotrione, ON × OFF / Insensitivity, topramezone, ON × OFF / Insensitivity, sulcotrione, ON × OFF / Insensitivity, isoxaflutole (DKN), ON × OFF: insensitivity = ON rate ratio × OFF rate ratio (surrogate for KD); conditions: for ON × OFF (product of ON ratio and OFF ratio) / ON × OFF kcat (product of ON ratio, OFF ratio and kcat) / Fold vs. wt (ON × OFF versus wild-type SEQ ID NO:1) / Fold vs. wt (ON × OFF × kcat versus wild-type SEQ ID NO:1): Megatable 2; for Fold vs. wt (ON × OFF versus wild-type SEQ ID NO:1): fold of ON × OFF; for Fold vs. wt (ON × OFF × kcat versus wild-type SEQ ID NO:1): fold of ON × OFF × kcat
Procedure, shortened: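 Trait fitness combines catalysis and insensitivity as kcat/KM × ON rate ratio × OFF rate ratio. The insensitivity parameter is the product of ON and OFF rate ratios, used in place of KD because the ON rate ratio is inverse.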

[4] = test system: 4-hydroxyphenylpyruvate dioxygenase (HPPD); test: Estimate of kcat from initial rate at saturating hydroxyphenylpyruvate without inhibitor (ON rate ratio assay)
Procedure, shortened: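 kcat was estimated from the initial reaction rate with known enzyme level (60 or 120 nM HPPD). Hydroxyphenylpyruvate was at a saturating 100 μM, with no inhibitor present.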

[5] = Table 7, tembotrione, combinatorial variants
[6] = Table 7, combinatorial variants
[7] = Megatable 2, single substitutions, positions numbered per SEQ ID NO:1

Row | Molecule | ON rate ratio [1] | OFF rate ratio [2] | ON × OFF ([3]; Megatable 3, shuffled variants) | ON × OFF × kcat ([3]; Megatable 3, shuffled variants) | ON × OFF [3, 5] | ON × OFF × kcat [3, 5] | kcat ([4]; Megatable 3, shuffled variants) | kcat [4, 6] | ON Rat. (ON ratio parameter) [1] | OFF Rat. (OFF ratio parameter) [2] | ON × OFF (product of ON ratio and OFF ratio) [3] | ON × OFF kcat (product of ON ratio, OFF ratio and kcat) [3] | Fold vs. wt (ON × OFF versus wild-type SEQ ID NO:1) [3] | Fold vs. wt (ON × OFF × kcat versus wild-type SEQ ID NO:1) [3] | kcat [4, 7]
1 | B1 | 0.700 | 0.360 | 0.252 | 4.30 | 0.252 | 4.30 | 0.285 s⁻¹ | 0.285 s⁻¹ |  |  |  |  |  |  | 
2 | B2 | 0.607 | 0.259 | 0.157 | 4.61 | 0.157 | 4.61 | 0.488 s⁻¹ | 0.488 s⁻¹ |  |  |  |  |  |  | 
3 | B3 | 0.761 | 0.304 | 0.231 | 5.30 | 0.231 | 5.30 | 0.383 s⁻¹ | 0.383 s⁻¹ |  |  |  |  |  |  | 
4 | B4 | 0.752 | 0.248 | 0.186 | 2.54 | 0.186 | 2.54 | 0.227 s⁻¹ | 0.227 s⁻¹ |  |  |  |  |  |  | 
5 | B5 | 0.739 | 0.361 | 0.267 | 4.47 | 0.267 | 4.47 | 0.278 s⁻¹ | 0.278 s⁻¹ |  |  |  |  |  |  | 
6 | B6 | 0.725 | 0.382 | 0.277 | 3.30 | 0.277 | 3.30 | 0.2 s⁻¹ | 0.2 s⁻¹ |  |  |  |  |  |  | 
7 | B7 | 0.702 | 0.304 | 0.213 | 3.23 | 0.213 | 3.23 | 0.255 s⁻¹ | 0.255 s⁻¹ |  |  |  |  |  |  | 
8 | B8 | 0.737 | 0.379 | 0.279 | 3.29 | 0.279 | 3.29 | 0.197 s⁻¹ | 0.197 s⁻¹ |  |  |  |  |  |  | 
9 | B9 | 0.716 | 0.385 | 0.275 | 4.37 | 0.275 | 4.37 | 0.263 s⁻¹ | 0.263 s⁻¹ |  |  |  |  |  |  | 
10 | B10 |  |  |  |  |  |  |  |  | 0.17 | 0.03 | 0.0051 | 1.07 | 1.00 | 1.00 | 3.5 s⁻¹
11 | B11 |  |  |  |  |  |  |  |  | 0.74 | 0.21 | 0.15 | 5.25 | 30.0 | 4.90 | 0.57 s⁻¹
